Positions count from the first letter of the chain named. Names and notes keep the numbering of the source. Read-outs that look alike come from different tables or passages of the source.
Legend:
[1] = biological target: T1, mouse FcγRIII extracellular domain with C-terminal His tag (mouse, UniProt P08508 31-215); assay: SPR Biacore T200
T1 construct: Made on the basis of NCBI NP-034318.2; also called mFcγRIII; mFcgRIII
T1 chain: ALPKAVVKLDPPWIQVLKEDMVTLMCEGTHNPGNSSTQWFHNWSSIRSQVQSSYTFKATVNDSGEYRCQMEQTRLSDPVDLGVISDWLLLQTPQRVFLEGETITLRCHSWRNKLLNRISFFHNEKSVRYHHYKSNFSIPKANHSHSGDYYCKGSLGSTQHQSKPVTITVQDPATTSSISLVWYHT
Procedure: (§1) Each altered antibody was analyzed for its interaction with each Fcγ receptor prepared above using Biacore T100 (GE Healthcare Japan Corp.), Biacore T200 (GE Healthcare Japan Corp.), Biacore A100, or Biacore 4000. The running buffer used was HBS-EP+ (GE Healthcare Japan Corp.). The assay temperature was set to 25° C. The sensor chips used were chips prepared by immobilizing Protein L (ACTIGEN or BioVision) onto Series S Sensor Chip CM5 (GE Healthcare Japan Corp.) or Series S Sensor Chip CM4 (GE Healthcare Japan Corp.) by the amine coupling method.
(§2) In order to calculate the KD value of each altered antibody for FcγR, kinetic analysis was conducted according to the following method: first, the antibody of interest was captured onto any of these chips and allowed to interact with mFcγR diluted with a running buffer. For the obtained sensorgram, the assay results were globally fit into the 1:1 Langmuir binding model using Biacore Evaluation Software to calculate an association rate constant ka (L/mol/s) and a dissociation rate constant kd (1/s). From these values, the dissociation constant KD (mol/L) was calculated.

[2] = biological target: T2, mouse FcγRII extracellular domain with C-terminal His tag (mouse, UniProt P08101 30-210); assay: SPR Biacore T200
T2 construct: Made on the basis of NCBI NP-034317.1; also called mFcγRII; mFcgRII
T2 sequence: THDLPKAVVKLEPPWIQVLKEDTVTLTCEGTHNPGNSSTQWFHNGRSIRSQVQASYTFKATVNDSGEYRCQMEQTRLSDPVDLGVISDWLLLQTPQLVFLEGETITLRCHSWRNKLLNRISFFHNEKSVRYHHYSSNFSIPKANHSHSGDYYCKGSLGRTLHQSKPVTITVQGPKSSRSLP
Procedure: as §1, §2

[3] = biological target: T2, mouse FcγRII extracellular domain with …; assay: SPR Biacore T200; KD mFcγRIII / KD mFcγRII
[4] = biological target: T1, mouse FcγRIII extracellular domain with …; assay: SPR Biacore T200
[5] = biological target: T2, mouse FcγRII extracellular domain with …; assay: SPR Biacore T200; remark: listed apart in the source
[6] = biological target: T1, mouse FcγRIII extracellular domain with …; assay: SPR Biacore T200
[7] = biological target: T2, mouse FcγRII extracellular domain with …; assay: SPR Biacore T200; remark: listed apart in the source

B1: H237-MB373/MRAL-k0 (antibody, mouse IgG1, kappa)
heavy: QVQLQESGPGLVKPSETLSLTCAVSGHSISHDHAWSWVRQPPGEGLEWIGFISYSGITNYNPSLQGRVTISRDNSKNTLYLQMNSLRAEDTAVYYCARSLARTTAMDYWGEGTLVTVSSAKTTPPSVYPLAPGSAAQTNSMVTLGCLVKGYFPEPVTVTWNSGSLSSGVHTFPAVLQSDLYTLSSSVTVPSSTWPSETVTCNVAHPASSTKVDKKIVPRDCGCKPCICEAYEVEDVFIFPPKPKDVLTITLTPKVTCVVVDISKDDPEVQFSWFVDDVEVHTAQTQPREEQFNSTFRSVSELPIMHQDWLNGKEFKCRVNSAAFPAPIEKTISKTKGRPKAPQVYTIPPPKEQMAKDKVSLTCMITDFFPEDITVEWQWNGQPAENYKNTQPIMDTDGSYFVYSKLNVQKSNWEAGNTFTCSVLHEGLHNHHTEKSLSHSPGK
light: not shown
notes: mIgG1 with T230E/V231A/P232Y/S238E/S239D (EU); template T1; copies: 2 + 2
Kd [1]: 18.2 nM | Kd [2]: 0.538 nM | I/A (mFcγRII selectivity) [3]: 33.8 | relative I/A (mFcγRII selectivity) (mIgG1 = 1) [3]: 25.2 | relative mFcγRIII-binding activity (mIgG1 = 1) [4]: 15.5 | relative mFcγRII-binding activity (mIgG1 = 1) [5]: 390 | Kd [6]: 18.2 nM | relative mFcγRIII-binding activity (mIgG1 = 1) [6]: 15.5 | Kd [7]: 0.538 nM | relative mFcγRII-binding activity (mIgG1 = 1) [7]: 390

B2: H237-MB476/MRAL-k0 (antibody, mouse IgG1, kappa)
heavy: B1 heavy with E229Q, A230P, Y231N, D235E
light: not shown
notes: mIgG1 with T230Q/V231P/P232N/S238E/S239E (EU); copies: 2 + 2
Kd [1]: 84 nM | Kd [2]: 0.854 nM | relative mFcγRIII-binding activity (mIgG1 = 1) [4]: 3.4 | relative mFcγRII-binding activity (mIgG1 = 1) [5]: 246

B3: H237-MB524/MRAL-k0 (antibody)
heavy: B1 heavy with A230P, Y231N, D235W
light: not shown
notes: copies: 2 + 2
Kd [1]: 837 nM | Kd [2]: 21 nM | relative mFcγRIII-binding activity (mIgG1 = 1) [4]: 0.3 | relative mFcγRII-binding activity (mIgG1 = 1) [5]: 10

B4: H237-MB397/MRAL-k0 (antibody, mouse IgG1, kappa)
heavy: B1 heavy with A230T
light: not shown
notes: mIgG1 with T230E/V231T/P232Y/S238E/S239D (EU); template T4; copies: 2 + 2
Kd [1]: 14.6 nM | Kd [2]: 0.379 nM | I/A (mFcγRII selectivity) [3]: 38.7 | relative I/A (mFcγRII selectivity) (mIgG1 = 1) [3]: 28.9 | relative mFcγRIII-binding activity (mIgG1 = 1) [4]: 19.3 | relative mFcγRII-binding activity (mIgG1 = 1) [5]: 555 | Kd [6]: 14.6 nM | relative mFcγRIII-binding activity (mIgG1 = 1) [6]: 19.3 | Kd [7]: 0.379 nM | relative mFcγRII-binding activity (mIgG1 = 1) [7]: 555

B5: H237-MB475/MRAL-k0 (antibody, mouse IgG1, kappa)
heavy: B1 heavy with A230P, Y231N, D235E
light: not shown
notes: copies: 2 + 2
Kd [1]: 81.4 nM | Kd [2]: 0.979 nM | relative mFcγRIII-binding activity (mIgG1 = 1) [4]: 3.5 | relative mFcγRII-binding activity (mIgG1 = 1) [5]: 214

B6: H237-MB389/MRAL-k0 (antibody, mouse IgG1, kappa)
heavy: B1 heavy with A230P, Y231A
light: not shown
notes: mIgG1 with T230E/V231P/P232A/S238E/S239D (EU); template T6; copies: 2 + 2
Kd [1]: 40.6 nM | Kd [2]: 0.858 nM | I/A (mFcγRII selectivity) [3]: 47.3 | relative I/A (mFcγRII selectivity) (mIgG1 = 1) [3]: 35.3 | relative mFcγRIII-binding activity (mIgG1 = 1) [4]: 7 | relative mFcγRII-binding activity (mIgG1 = 1) [5]: 245 | Kd [6]: 40.6 nM | relative mFcγRIII-binding activity (mIgG1 = 1) [6]: 7 | Kd [7]: 0.858 nM | relative mFcγRII-binding activity (mIgG1 = 1) [7]: 245

B7: H237-MB473/MRAL-k0 (antibody, mouse IgG1, kappa)
heavy: B1 heavy with A230P, Y231A, D235E
light: not shown
notes: copies: 2 + 2
Kd [1]: 196 nM | Kd [2]: 3.65 nM | relative mFcγRIII-binding activity (mIgG1 = 1) [4]: 1.4 | relative mFcγRII-binding activity (mIgG1 = 1) [5]: 57.6

B8: H237-MB513/MRAL-k0 (antibody, mouse IgG1, kappa)
heavy: B1 heavy with A230P, Y231A, D235M
light: not shown
notes: copies: 2 + 2
Kd [1]: 509 nM | Kd [2]: 4.53 nM | relative mFcγRIII-binding activity (mIgG1 = 1) [4]: 0.6 | relative mFcγRII-binding activity (mIgG1 = 1) [5]: 46.3

B9: H237-MB474/MRAL-k0 (antibody, mouse IgG1, kappa)
heavy: B1 heavy with E229I, A230P, Y231A, D235E
light: not shown
notes: copies: 2 + 2
Kd [1]: 247 nM | Kd [2]: 4.89 nM | relative mFcγRIII-binding activity (mIgG1 = 1) [4]: 1.1 | relative mFcγRII-binding activity (mIgG1 = 1) [5]: 42.9

B10: H237-MB515/MRAL-k0 (antibody, mouse IgG1, kappa)
heavy: B1 heavy with A230P, Y231N, D235M
light: not shown
notes: mIgG1 with T230E/V231P/P232N/S238E/S239M (EU); copies: 2 + 2
Kd [1]: 171 nM | Kd [2]: 1.27 nM | relative mFcγRIII-binding activity (mIgG1 = 1) [4]: 1.7 | relative mFcγRII-binding activity (mIgG1 = 1) [5]: 165

B11: H237-MB390/MRAL-k0 (antibody, mouse IgG1, kappa)
heavy: B1 heavy with A230P, Y231N
light: not shown
notes: mIgG1 with T230E/V231P/P232N/S238E/S239D (EU); template T8; copies: 2 + 2
Kd [1]: 23.7 nM | Kd [2]: 0.403 nM | I/A (mFcγRII selectivity) [3]: 59 | relative I/A (mFcγRII selectivity) (mIgG1 = 1) [3]: 44 | relative mFcγRIII-binding activity (mIgG1 = 1) [4]: 11.9 | relative mFcγRII-binding activity (mIgG1 = 1) [5]: 522 | Kd [6]: 23.7 nM | relative mFcγRIII-binding activity (mIgG1 = 1) [6]: 11.9 | Kd [7]: 0.403 nM | relative mFcγRII-binding activity (mIgG1 = 1) [7]: 522

B12: H237-MB382/MRAL-k0 (antibody, mouse IgG1, kappa)
heavy: B1 heavy with A230D
light: not shown
notes: mIgG1 with T230E/V231D/P232Y/S238E/S239D (EU); template T2; copies: 2 + 2
Kd [1]: 23 nM | Kd [2]: 0.655 nM | I/A (mFcγRII selectivity) [3]: 35.1 | relative I/A (mFcγRII selectivity) (mIgG1 = 1) [3]: 26.2 | relative mFcγRIII-binding activity (mIgG1 = 1) [4]: 12.3 | relative mFcγRII-binding activity (mIgG1 = 1) [5]: 321 | Kd [6]: 23 nM | relative mFcγRIII-binding activity (mIgG1 = 1) [6]: 12.3 | Kd [7]: 0.655 nM | relative mFcγRII-binding activity (mIgG1 = 1) [7]: 321

B13: H237-MB486/MRAL-k0 (antibody, mouse IgG1, kappa)
heavy: B1 heavy with A230P, Y231A, D235S
light: not shown
notes: copies: 2 + 2
Kd [1]: 258 nM | Kd [2]: 7.47 nM | relative mFcγRIII-binding activity (mIgG1 = 1) [4]: 1.1 | relative mFcγRII-binding activity (mIgG1 = 1) [5]: 28.1

B14: H237-MB379/MRAL-k0 (antibody, mouse IgG1, kappa)
heavy: B1 heavy with A230V
light: not shown
notes: mIgG1 with T230E/P232Y/S238E/S239D (EU); template T5; copies: 2 + 2
Kd [1]: 23.2 nM | Kd [2]: 0.768 nM | I/A (mFcγRII selectivity) [3]: 30.2 | relative I/A (mFcγRII selectivity) (mIgG1 = 1) [3]: 22.5 | relative mFcγRIII-binding activity (mIgG1 = 1) [4]: 12.2 | relative mFcγRII-binding activity (mIgG1 = 1) [5]: 273 | Kd [6]: 23.2 nM | relative mFcγRIII-binding activity (mIgG1 = 1) [6]: 12.2 | Kd [7]: 0.768 nM | relative mFcγRII-binding activity (mIgG1 = 1) [7]: 273

B15: H237-MB387/MRAL-k0 (antibody, mouse IgG1, kappa)
heavy: B1 heavy with A230N
light: not shown
notes: mIgG1 with T230E/V231N/P232Y/S238E/S239D (EU); template T3; copies: 2 + 2
Kd [1]: 16.9 nM | Kd [2]: 0.659 nM | I/A (mFcγRII selectivity) [3]: 25.6 | relative I/A (mFcγRII selectivity) (mIgG1 = 1) [3]: 19.1 | relative mFcγRIII-binding activity (mIgG1 = 1) [4]: 16.7 | relative mFcγRII-binding activity (mIgG1 = 1) [5]: 319 | Kd [6]: 16.9 nM | relative mFcγRIII-binding activity (mIgG1 = 1) [6]: 16.7 | Kd [7]: 0.659 nM | relative mFcγRII-binding activity (mIgG1 = 1) [7]: 319
